Results as given in IntAct's records for PubMed 29774127.

Key:
ctnb1_human CTNNB1 = ctnb1_human CTNNB1 (UniProt P35222)
ehmt2_human EHMT2 = ehmt2_human EHMT2 (UniProt Q96KQ7)
setb1_human SETDB1 = setb1_human SETDB1 (UniProt Q15047)

Measured: effect of a mutation on the interaction

Parafibromin (Homo sapiens) (from UniProt Q6P1J9) Y290F;Y293F;Y315F
increasing interaction: ctnb1_human CTNNB1 | SETDB1, Q15047-2 | ehmt2_human EHMT2 | setb1_human SETDB1
